Substitutions are numbered along the chain they refer to. Names may count otherwise.
T1: PUF4 RNA-binding domain (Saccharomyces cerevisiae, UniProt P25339 537-888)
T1 sequence: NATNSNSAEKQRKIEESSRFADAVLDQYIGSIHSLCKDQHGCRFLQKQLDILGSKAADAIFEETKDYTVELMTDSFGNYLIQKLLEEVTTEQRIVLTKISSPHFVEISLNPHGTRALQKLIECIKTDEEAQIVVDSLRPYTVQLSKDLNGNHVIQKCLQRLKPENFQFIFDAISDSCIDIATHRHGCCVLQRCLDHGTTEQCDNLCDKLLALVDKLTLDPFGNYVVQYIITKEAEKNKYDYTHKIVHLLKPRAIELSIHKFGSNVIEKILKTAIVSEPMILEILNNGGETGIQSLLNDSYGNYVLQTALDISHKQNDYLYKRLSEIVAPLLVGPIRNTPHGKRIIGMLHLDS

B1: Ib_S2_P3E.1_K3.1_C3.1_H3.1_[G2T]_[T3A]_A3.1_F3.1_T3.1 (ssRNA)
RNA: UUUGAUUAAUAUGAUAUCGUUCUUUCUUUAAUAUAUUCUUUCUCGAUAUCAUAUUAAUCUUU
B2: Ib_S2_P3E.1_K3.1_C3.1_H3.1_[G2C]_[A4C]_A3.1_F3.1_T3.1 (ssRNA)
RNA: B1 RNA with U29C, A30U, A31C
B3: Ib_S2_P3E.1_K3.1_C3.1_H3.1_[G2T]_[A4T]_A3.1_F3.1_T3.1 (ssRNA)
RNA: B1 RNA with A30U, A31U
B4: Ib_S2_P3E.1_K3.1_C3.1_H3.1_[G2C]_[A4T]_A3.1_F3.1_T3.1 (ssRNA)
RNA: B1 RNA with U29C, A30U, A31U
B5: Ic_S2_P3E.1_K3.1_C3.1_H3.1_A3.1_[T5C]_F3.1_T3.1 (ssRNA)
RNA: B1 RNA with U29G, A30U, U32C
B6: Ib_S2_P3E.1_K3.1_C3.1_H3.1_[G2A]_[T3C]_A3.1_F3.1_T3.1 (ssRNA)
RNA: B1 RNA with U29A, A30C
B7: Ie_S2_P5E.1_K5.1_C5.1_H5.1_A5.1_[+7CCT]_F5.1_T5.1 (ssRNA)
RNA: UUUGAUUAAUAUGAUAUCGUUCUUUCUUGUAUUACCUUUAUUCUUUCUCGAUAUCAUAUUAAUCUUU
B8: Ie_S2_P5E.1_K5.1_C5.1_H5.1_A5.1_F5.1_[+9CTC]_T5.1 (ssRNA)
RNA: B7 RNA with C35U, C36U, U37C, U39C
B9: Ie_S2_P5E.1_K5.1_C5.1_H5.1_A5.1_[+7CTC]_F5.1_T5.1 (ssRNA)
RNA: B7 RNA with C36U, U37C
B10: Ie_S2_P5E.1_K5.1_C5.1_H5.1_A5.1_[+7CTT]_F5.1_T5.1 (ssRNA)
RNA: B7 RNA with C36U
B11: Ie_S2_P5E.1_K5.1_C5.1_H5.1_A5.1_F5.1_[+8CCT]_T5.1 (ssRNA)
RNA: B7 RNA with C35U, U37C
B12: Ie_S2_P5E.1_K5.1_C5.1_H5.1_A5.1_F5.1_[+8TTC]_T5.1 (ssRNA)
RNA: B7 RNA with C35U, C36U, U38C
B13: Ie_S2_P5E.1_K5.1_C5.1_H5.1_A5.1_F5.1_[+9CTT]_T5.1 (ssRNA)
RNA: B7 RNA with C35U, C36U, U37C
B14: Ie_S2_P5E.1_K5.1_C5.1_H5.1_A5.1_F5.1_[+9TCC]_T5.1 (ssRNA)
RNA: B7 RNA with C35U, C36U, U38C, U39C
B15: Ie_S2_P5E.1_K5.1_C5.1_H5.1_A5.1_[+7TCT]_F5.1_T5.1 (ssRNA)
RNA: B7 RNA with C35U
B16: Ie_S2_P5E.1_K5.1_C5.1_H5.1_A5.1_F5.1_[+9TTC]_T5.1 (ssRNA)
RNA: B7 RNA with C35U, C36U, U39C
B17: Ie_S2_P5E.1_K5.1_C5.1_H5.1_A5.1_F5.1_[+8CCC]_T5.1 (ssRNA)
RNA: B7 RNA with C35U, U37C, U38C
B18: Ie_S2_P5E.1_K5.1_C5.1_H5.1_A5.1_F5.1_[+8TTT]_T5.1 (ssRNA)
RNA: B7 RNA with C35U, C36U
B19: Ie_S2_P5E.1_K5.1_C5.1_H5.1_A5.1_F5.1_[+9CCT]_T5.1 (ssRNA)
RNA: B7 RNA with C35U, C36U, U37C, U38C
B20: Ie_S2_P5E.1_K5.1_C5.1_H5.1_A5.1_[+6TTCCT]_F5.1_T5.1 (ssRNA)
RNA: UUUGAUUAAUAUGAUAUCGUUCUUUCUUGUAUUUUCCUAUUAUUCUUUCUCGAUAUCAUAUUAAUCUUU
B21: Ie_S2_P5E.1_K5.1_C5.1_H5.1_A5.1_[+7CCTCT]_F5.1_T5.1 (ssRNA)
RNA: B20 RNA with U34A, U35C, C37U, U38C, A39U
B22: Ie_S2_P5E.1_K5.1_C5.1_H5.1_A5.1_[+7TTCCT]_F5.1_T5.1 (ssRNA)
RNA: B20 RNA with U34A, C36U, U38C, A39U
B23: Ie_S2_P5E.1_K5.1_C5.1_H5.1_A5.1_F5.1_[+9CCCTT]_T5.1 (ssRNA)
RNA: B20 RNA with U34A, C36U, U38C, A39C
B24: Ie_S2_P5E.1_K5.1_C5.1_H5.1_A5.1_[+7TCTCT]_F5.1_T5.1 (ssRNA)
RNA: B20 RNA with U34A, C37U, U38C, A39U
B25: Ie_S2_P5E.1_K5.1_C5.1_H5.1_A5.1_F5.1_[+9CTCTC]_T5.1 (ssRNA)
RNA: B20 RNA with U34A, C36U, A39C, U41C
B26: Ie_S2_P5E.1_K5.1_C5.1_H5.1_A5.1_[+7CTCTC]_F5.1_T5.1 (ssRNA)
RNA: B20 RNA with U34A, U35C, C36U, A39C
B27: Ie_S2_P5E.1_K5.1_C5.1_H5.1_A5.1_F5.1_[+8CTCTC]_T5.1 (ssRNA)
RNA: B20 RNA with U34A, C37U, U38C, A39U, U40C
B28: Ie_S2_P5E.1_K5.1_C5.1_H5.1_A5.1_F5.1_[+9TCTCT]_T5.1 (ssRNA)
RNA: B20 RNA with U34A, C36U, C37U, U38C, A39U, U40C
B29: Ie_S2_P5E.1_K5.1_C5.1_H5.1_A5.1_F5.1_[+9CCTCT]_T5.1 (ssRNA)
RNA: B20 RNA with U34A, C36U, U38C, A39U, U40C
B30: Ie_S2_P5E.1_K5.1_C5.1_H5.1_A5.1_F5.1_[+9TTCCT]_T5.1 (ssRNA)
RNA: B20 RNA with U34A, C36U, C37U, A39C, U40C
B31: Ie_S2_P5E.1_K5.1_C5.1_H5.1_A5.1_F5.1_[+8CCCTT]_T5.1 (ssRNA)
RNA: B20 RNA with U34A, U38C, A39U
B32: Ie_S2_P5E.1_K5.1_C5.1_H5.1_A5.1_[+7CTCT]_F5.1_T5.1 (ssRNA)
RNA: UUUGAUUAAUAUGAUAUCGUUCUUUCUUGUAUUACUCUUUAUUCUUUCUCGAUAUCAUAUUAAUCUUU
B33: Ie_S2_P5E.1_K5.1_C5.1_H5.1_A5.1_[+7CCCT]_F5.1_T5.1 (ssRNA)
RNA: B32 RNA with U36C
B34: Ie_S2_P5E.1_K5.1_C5.1_H5.1_A5.1_[+7TTCC]_F5.1_T5.1 (ssRNA)
RNA: B32 RNA with C35U, U38C
B35: Ie_S2_P5E.1_K5.1_C5.1_H5.1_A5.1_F5.1_[+9TTCC]_T5.1 (ssRNA)
RNA: B32 RNA with C35U, C37U, U39C, U40C
B36: Ie_S2_P5E.1_K5.1_C5.1_H5.1_A5.1_F5.1_[+8CCTC]_T5.1 (ssRNA)
RNA: B32 RNA with C35U, U36C, U39C
B37: Ie_S2_P5E.1_K5.1_C5.1_H5.1_A5.1_F5.1_[+9TCTC]_T5.1 (ssRNA)
RNA: B32 RNA with C35U, C37U, U38C, U40C
B38: Ie_S2_P5E.1_K5.1_C5.1_H5.1_A5.1_F5.1_[+9CCCT]_T5.1 (ssRNA)
RNA: B32 RNA with C35U, U38C, U39C
B39: Ie_S2_P5E.1_K5.1_C5.1_H5.1_A5.1_[+7TCTC]_F5.1_T5.1 (ssRNA)
RNA: B32 RNA with C35U, U36C, C37U, U38C
B40: Ie_S2_P5E.1_K5.1_C5.1_H5.1_A5.1_F5.1_[+9CCTC]_T5.1 (ssRNA)
RNA: B32 RNA with C35U, U38C, U40C
B41: Ie_S2_P5E.1_K5.1_C5.1_H5.1_A5.1_[+7CCTC]_F5.1_T5.1 (ssRNA)
RNA: B32 RNA with U36C, C37U, U38C
B42: Ie_S2_P5E.1_K5.1_C5.1_H5.1_A5.1_F5.1_[+8CCCT]_T5.1 (ssRNA)
RNA: B32 RNA with C35U, U36C, U38C
B43: Ie_S2_P5E.1_K5.1_C5.1_H5.1_A5.1_F5.1_[+8TTCC]_T5.1 (ssRNA)
RNA: B32 RNA with C35U, C37U, U38C, U39C
B44: Ie_S2_P5E.1_K5.1_C5.1_H5.1_A5.1_F5.1_[+9T]_T5.1 (ssRNA)
RNA: UUUGAUUAAUAUGAUAUCGUUCUUUCUUGUAUUAUUUAUUCUUUCUCGAUAUCAUAUUAAUCUUU
B45: Ie_S2_P5E.1_K5.1_C5.1_H5.1_A5.1_F5.1_[+8C]_T5.1 (ssRNA)
RNA: B44 RNA with U36C
B46: Ie_S2_P5E.1_K5.1_C5.1_H5.1_A5.1_F5.1_[+10T]_T5.1 (ssRNA)
RNA: B44 RNA with U37A, A38U
B47: Ie_S2_P5E.1_K5.1_C5.1_H5.1_A5.1_[+7CC]_F5.1_T5.1 (ssRNA)
RNA: UUUGAUUAAUAUGAUAUCGUUCUUUCUUGUAUUACCUUAUUCUUUCUCGAUAUCAUAUUAAUCUUU
B48: Ie_S2_P5E.1_K5.1_C5.1_H5.1_A5.1_[+7TC]_F5.1_T5.1 (ssRNA)
RNA: B47 RNA with C35U
B49: Ie_S2_P5E.1_K5.1_C5.1_H5.1_A5.1_F5.1_[+10TT]_T5.1 (ssRNA)
RNA: B47 RNA with C35U, C36U, U37A, A39U
B50: Ie_S2_P5E.1_K5.1_C5.1_H5.1_A5.1_F5.1_[+9TT]_T5.1 (ssRNA)
RNA: B47 RNA with C35U, C36U
B51: Ie_S2_P5E.1_K5.1_C5.1_H5.1_A5.1_F5.1_[+8TC]_T5.1 (ssRNA)
RNA: B47 RNA with C35U, C36U, U37C

These binders were tested against T1, PUF4 RNA-binding domain (assay: Mg; RNA-MaP; 20 mM Na-HEPES pH 7.4, 30 mM KOAc, 0.75 mM MgCl2, 0.1% Tween-20, 5% glycerol, 0.1 mg/mL BSA, 2 mM DTT; 25 C; 0.0125-409.6 nM protein). Settings: tags: N-His6-TEV cleaved; C-SNAP kept, Cy3B-labelled; label: tethered on chip by stalled RNA polymerase.
B1 gave a Kd of 1460 nM. B2 showed a Kd of 2150 nM. Binder B3 has a Kd of over 2300 nM. Work on B4 yielded a Kd of 1670 nM. B5 gave a Kd of 1.76 nM. B6 gave a Kd of over 2300 nM. Work on B7 yielded a Kd of 31.6 nM. In the case of B8, the Kd is reported as 22.6 nM. With B9 the Kd was 42.2 nM. In the case of B10, the Kd is reported as 25.2 nM. B11 showed a Kd of 16.6 nM. B12 showed a Kd of 7.64 nM. Work on B13 yielded a Kd of 10.5 nM. B14 gave a Kd of 15.6 nM. B15 gave a Kd of 15.8 nM. Work on B16 yielded a Kd of 14.1 nM. In the case of B17, the Kd is reported as 12.8 nM. Binder B18 has a Kd of 8.05 nM. B19 showed a Kd of 7.29 nM. With B20 the Kd was 12.3 nM. With B21 the Kd was 57.6 nM. B22 gave a Kd of 7.84 nM. For B23, the Kd was 12.8 nM. Binder B24 has a Kd of 17.2 nM. B25 showed a Kd of 13.7 nM. Binder B26 has a Kd of 47.3 nM. In the case of B27, the Kd is reported as 13.1 nM. For B28, the Kd was 6.98 nM. For B29, the Kd was 7.72 nM. B30 showed a Kd of 7.79 nM. With B31 the Kd was 15.2 nM. B32 was tested, and the Kd was 51.9 nM. Binder B33 has a Kd of 74 nM. B34 gave a Kd of 10.1 nM. With B35 the Kd was 13.2 nM. B36 showed a Kd of 15.8 nM. In the case of B37, the Kd is reported as 10.2 nM. B38 showed a Kd of 8.29 nM. Work on B39 yielded a Kd of 18.3 nM. B40 was tested, and the Kd was 16.4 nM. Binder B41 has a Kd of 49 nM. B42 was tested, and the Kd was 11.6 nM. Binder B43 has a Kd of 9.45 nM. Binder B44 has a Kd of 5.9 nM. Work on B45 yielded a Kd of 11.6 nM. With B46 the Kd was 1.76 nM. In the case of B47, the Kd is reported as 58.9 nM. B48 was tested, and the Kd was 11.8 nM. For B49, the Kd was 2.29 nM. In the case of B50, the Kd is reported as 8.73 nM. B51 gave a Kd of 10.3 nM.
